Reference: the supplement of paper PMC9170038

Test system: MS2 coat protein
Test: apparent KD of MS2 coat protein; designed switch direction (-1 OFF switch, 1 ON switch): -1; higher = weaker reporter binding
Method in brief: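 The buffer was Tris-HCl pH 7.5 with KCl, MgCl2, BSA, DTT, tRNA and Tween-20. In it, SNAP-549-labelled MS2 coat protein was titrated in doubling steps from 0.7 or 1.5 nM to 3 µM over chip-bound RNA switches transcribed by stalled E. coli RNA polymerase on Illumina chips. Apparent KD is the per-design median over clusters of curve fits to normalised fluorescence.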

[1] = input ligand: microRNA oligo, concentration not stated
[2] = Eterna round: R95, input ligand: microRNA oligo, concentration not stated
[3] = Eterna round: R95, input ligand: FMN 200 uM
[4] = Eterna round: R95, input ligand: none

Row | Sequence | apparent KD of MS2 coat protein (input ligand: FMN 200 uM) | apparent KD of MS2 coat protein (input ligand: none) | apparent KD of MS2 coat protein [1] | apparent KD of MS2 coat protein [2] | apparent KD of MS2 coat protein [3] | apparent KD of MS2 coat protein [4]
1 | UGAUUGUUUACCAGGUUAUACAUGAGGAUCACCCAUGUAGAUCCUACGUGCGCGUUGUACCGCUCGUCUUAUUGCCA [Sensor-V1 #79] (Eterna round: R97, puzzle: Sensor, turn-off variant 1) | 19.5 nM | 21.3 nM | – | – | – | –
2 | GCUCACGCAGGAUAUACAUGAGGAUCACCCAUGUUCGAAGGGCGCGGGUACAAAGUCUGUAGAAGGGCGAAAAU [Getiin] (Eterna round: R97, puzzle: Exclusion 3) | 26.1 nM | 19.8 nM | – | – | – | –
3 | AAAACUCACGUAGGAUAUCAUUCCUUAAGGUAGUGAGAAGGACGUGACUACAUGUCCUAAAACAUGAGGAUCACCCAUGUAGGC [Riis] (Eterna round: R96, puzzle: Exclusion NG 1) | – | – | 24.2 nM | – | – | –
4 | AUAAUUUAAGGAUAUACGUGGCGAGCCAGAUAGCUGGGUCUACAUGAGGAUCACCCAUGUAGAAGGUAAGGAUU [Eternabot (L1) Solution 23] (Eterna round: R97, puzzle: Exclusion 2) | 17.8 nM | 18.6 nM | – | – | – | –
5 | UCGCUGCGAGGAUAUACGUGCGCGCGCUUUCGUUUGCGCGUACAUGAGGAUCACCCAUGUAGAAGGCGCGCUGC [Apr-15 SS2-6] (puzzle: Exclusion 2) | – | – | – | 12.7 nM | – | –
6 | CUUUCGUCUGUGGGUGGUGACAUGAGGAUCACCCAUGUUUUGCUCGUCUUGUGCCGGGCCCGGCGCCCGGGCCCGGC [-38.7, -62.6, A 8%] (Eterna round: R97, puzzle: Sensor, turn-off variant 1) | 861 nM | 992 nM | – | – | – | –
7 | GGGUAGUGAGGAUAUCGUUGUUAGGAGGAGUAGGUAGGAGGCGAGAAGGCACAUGAGGAUCACCCAUGUAUGAA [JR_Exclu4_Sub066] (Eterna round: R96, puzzle: Exclusion 4) | 34.9 nM | 32 nM | 26.2 nM | – | – | –
8 | CAUGAUUGGGAAGGAUAUUGACCUAGUUAGCGCCGAGAAGGUCCCUGUCACAUGAGGAUCACCCAUGUGAAUCUGGUGAAAGAG [Ex NG1 #93] (Eterna round: R96, puzzle: Exclusion NG 1) | 26.1 nM | 22.9 nM | 16.6 nM | – | – | –
9 | GGUACUCAAAGAGUACCAAUACGAACAUGAGGAUCACCCAUGUAGGAUAUGCUACUCAAAGAGUAGCAGAAGGAUAUGAUCCCU [Far Half Aptamer v12] (Eterna round: R96, puzzle: Exclusion NG 3) | 211 nM | 126 nM | 99.6 nM | – | – | –
10 | CCCAGUUAGGAAGGAUAUUGUACAUGAGGAUCACCCAUGUAAUAAAUGAGGAUCUCGGAUGUCUACAAGAAGGUCCGGAUAGGC [Ostracism 11 - Jieux - Exclusion NG 2] (Eterna round: R96, puzzle: Exclusion NG 2) | 65.9 nM | 44.5 nM | 34.3 nM | – | – | –
11 | AAUACAAGCUAUUGAUCCCACAUGAGGAUCACCCAUGUAGGUGGCCGUGAGACCACCUUUACGAUAGCUCGUCUUAU [Sensor-V1 #51] (Eterna round: R97, puzzle: Sensor, turn-off variant 1) | 277 nM | 274 nM | – | – | – | –
12 | UCGGCGCGAGGAUAUACGUUUGCGCUUUUUCGUUUUUGCGUACAUGAGGAUCACCCAUGUAGAAGGCGCGCCGC [Apr-15 SS2-17] (puzzle: Exclusion 2) | – | – | – | 14 nM | – | –
13 | AAUGAGCGAGGAUAUGCAACUGUAUGACCUACGUGUGCCAGACAUGAGGAUCACCCAUGUAGAAGGUGCUUUCC [Israte] (puzzle: Exclusion 2) | – | – | – | 45.4 nM | – | –
14 | AUUAGUAAUAAGGAUAUCACUAGCUGCGGCUAGUGAGAAGGUAUUACAUGAGGAUCACCCAUGUGAUCAAUUAA [E6/3-A3] (Eterna round: R97, puzzle: Exclusion 6) | 912 nM | 476 nM | – | – | – | –
15 | GCUAGAGCAGGAUAUCUAGAUCCACACAUGAGGAUCACCCAUGUAGUCGAAAGACUAAGAAGAGAAGGGCUCUAGC [Omei Ex5 E16] (Eterna round: R97, puzzle: Exclusion 5) | 322 nM | 324 nM | – | – | – | –
16 | CACCCACAUGAGGAUCACCCAUGUGAGGAUAUGAUACUAUGUACUUCGGUACAUAGUAUCAGAAGGCACAGGUG [Ex1-3: 61] (Eterna round: R96, puzzle: Exclusion 1) | 102 nM | 28 nM | 25.7 nM | – | – | –
17 | CUUUUGUGAGGAUAUCAGUAGUAAUACAAUAGUAUUAUUACUGAGAAGGCACAUGAGGAUCACCCAUGUUCCUC [Ex4 344 Omei mod 7] (puzzle: Exclusion 4) | – | – | – | 38.6 nM | – | –

Row | Sequence | apparent KD of MS2 coat protein (input ligand: FMN 200 uM) | apparent KD of MS2 coat protein (input ligand: none) | apparent KD of MS2 coat protein [1] | apparent KD of MS2 coat protein [2] | apparent KD of MS2 coat protein [3] | apparent KD of MS2 coat protein [4]
18 | CGAGCUAAUGUGAGGAUAUACCUAUGGAUACAUAGGUAGAAGGCACAUGAGGAUCACCCAUGUCCUAUAGCUCG [jl-bmx4-4.55] (Eterna round: R97, puzzle: Brourd's mod of Exclusion 4) | 241 nM | 304 nM | – | – | – | –
19 | GGCGAAGUAGGAUAUACAUGAGGAUCACCCAUGUUACCUGAUGGCGUAGGUCUUCUAUGUAGAAGGGCUACGCC [jl-ex3-4.36 ViennaUCT mod] (Eterna round: R97, puzzle: Exclusion 3) | 16.9 nM | 16.9 nM | – | – | – | –
20 | AGAGUGCUGCGAGGAUAUACAUGAGGAUCACCCAUGUUAUCGUGUGAGGCUUUGCCUCACACGAAGUAGAAGGCGCAGUACUCA [Mat - Exclusion NG 2 - Mod of JL - D100] (Eterna round: R96, puzzle: Exclusion NG 2) | 13.4 nM | 14.2 nM | 7.69 nM | – | – | –
21 | UGGUAACAUGAGGAUCACCCAUGUCAGGAUAUCAGUAAGAAUAGAGGAGAGUAGAAGAUGAGAAGGGACUAUAU [Excluse me! 8 - Jieux - Exclusion 1] (puzzle: Exclusion 1) | – | – | – | 33.4 nM | 20.5 nM | 30.8 nM
22 | UUUUAACAUGAGGAUCACCCAUGUGAGGAUAUCGAAAUUUAUAUUUAUAUUAAUAAAUCGAGAAGGCACAUUUU [JMF 76] (puzzle: Exclusion 1) | – | – | – | 119 nM | – | –
23 | AUGUACCGGUGAGGAUAUUUUUAAUAGAGCUUUAUGAUAUACAUGAGGAUCACCCAUGUUACGUUAAAGAAGGCAUCGGAUUAA [Mat - Exclusion NG 2 - Mod of JL - D96] (Eterna round: R96, puzzle: Exclusion NG 2) | – | – | 14 nM | – | – | –
24 | UGUCCACAUUCCGAUACGGGACAUGAGGAUCACCCAUGUCCACAGGAUAUCGUCUUACGAGAGAUCGAGAAGGGUGGCGUGCGC [Eternabot solution 22] (Eterna round: R96, puzzle: Exclusion NG 3) | 13.1 nM | 14.1 nM | 9.72 nM | – | – | –
25 | GGAAUACAUGAGGAUCACCCAUGUAAGGAUAUGCUGAAUAUCACGGAAUAAACGUGCAGCAGAAGGUACAAAGG [Mat - Mod of my Eli Mod D46] (puzzle: Exclusion 1) | – | – | – | 65.9 nM | 103 nM | 93.6 nM
26 | UAUGUGUCAGGAUAUUAGUAGUAAAUAAAUAAAAUUAUUACUGAGAAGGGACAUGAGGAUCACCCAUGUGCCUU [Salish 062 v31] (Eterna round: R97, puzzle: Exclusion 4) | 23.2 nM | 12.3 nM | – | – | – | –
27 | CCGAAUAUGCAGGAUAUCGUAUCGGAAACGAUACGAGAAGGGCAAACAUGAGGAUCACCCAUGUUCCUUAACGG [Fiskers Ex 6 - 14] (puzzle: Exclusion 6) | – | – | – | 15.8 nM | – | –
28 | AAGCAACAUGAGGAUCACCCAUGUGAGGAUAUACGCAUGCAUGCAUGCAUGCAUGCAAGUAGAAGGCACAAUAC [Design #16] (Eterna round: R97, puzzle: Exclusion 1) | 69.8 nM | 35.3 nM | – | – | – | –
29 | GGAUAUAAGUCAGGAUAUGAGCGCAACUGACGAUCAGAAGGGACACAUGAGGAUCACCCAUGUGAUCUAUCAAUAUUAUACAUG [Prohibition 93 - Jieux - Exclusion NG 1] (Eterna round: R96, puzzle: Exclusion NG 1) | 29.1 nM | 22.4 nM | 19 nM | – | – | –
30 | AGAUGUAGAUACCGAUCCUACAUGAGGAUCACCCAUGUAGCUAGACGUGCGCGCGUCGCUCGUCAGACUACCAGUAG [salish99_TOv1_r3_092] (puzzle: Sensor v3, turn-off variant 1) | – | – | – | 296 nM | 330 nM | 157 nM
31 | CGAUGCUCGAGUCGACAUGAGGAUCACCCAUGUAGAGUUAGCGAGGAUAUCGGAGACACAUAGUAUGAGAAGGCGCGAACCUGA [Ex NG3 #19] (Eterna round: R96, puzzle: Exclusion NG 3) | 36.2 nM | 16.7 nM | 12.3 nM | – | – | –
32 | UUUACAAGCUUUAGAUCCCACAUGAGGAUCACCCAUGUUGCUGCCGUGAGGUAGCUUUUAACUAAUGCUCGUCUUAU [JL TOV1 3.41] (Eterna round: R97, puzzle: Sensor, turn-off variant 1) | 103 nM | 124 nM | – | – | – | –
33 | UGCGGAAGAGGAUAUACAUUGAAUUUGAUUCAUGUAAAACUACAUGAGGAUCACCCAUGUAGAAGGCUUUCGCU [Mat - Exclusion 2 - JL Mod - D66] (Eterna round: R97, puzzle: Exclusion 2) | 33.7 nM | 17.7 nM | – | – | – | –
34 | GCACGGUUGGUAGGAUAUCCUUGCGAUUAGCAAGGAGAAGGACCACAUGAGGAUCACCCAUGUACCUCAAUUGUCCUUCCGUGC [Eli exng1 - 026] (Eterna round: R96, puzzle: Exclusion NG 1) | 18.5 nM | 19.3 nM | 13.9 nM | – | – | –
